These results are taken from patent US20240116985A1, “STAPLED PEPTIDES AND METHODS THEREOF” (priority 2020, published 2024).

Starred links: 1 amine or outer side, 2 acyl side, 3 side chain; linkers in the order of their positions; H or OH if unused. Positions of bridges follow the written chain, without caps; N, C: chain ends. Non-standard residues stand in square brackets, D forms with d. Primed or numbered codes have the meaning given here. No end group written: not given here. *: point of attachment. PyrS2″ = (S)-3-amino-1-((pent-4-en-1-yloxy)carbonyl)pyrrolidine-3-carboxylic acid (stapling residue), C=CCCCOC(=O)N1CC[C@@](N[*:1])(C(=O)[*:2])C1; B5(23) = 2-amino-2-(pent-4-en-1-yl)hept-6-enoic acid (2,2-bis(4-pentenyl)glycine), stitching residue, C=CCCCC(CCCC=C)(N[*:1])C(=O)[*:2]; B5(4) = 2,2-bis(4-pentenyl)glycine = 2-amino-2-(pent-4-en-1-yl)hept-6-enoic acid (stitching residue), C=CCCCC(CCCC=C)(N[*:1])C(=O)[*:2]; B5(5) = 2,2-bis(4-pentenyl)glycine, 2-amino-2-(pent-4-en-1-yl)hept-6-enoic acid (stitching residue), C=CCCCC(CCCC=C)(N[*:1])C(=O)[*:2]; TfeGA(3) = (S)-2-amino-3-((carboxymethyl)(2,2,2-trifluoroethyl)amino)prop[anoic acid], O=C([C@H](CN(CC(=O)[*:3])CC(F)(F)F)N[*:1])[*:2]; PyrS2 = (S)-3-amino-1-((pent-4-en-1-yloxy)carbonyl)pyrrolidine-3-carboxylic acid, C=CCCCOC(=O)N1CC[C@@](N[*:1])(C(=O)[*:2])C1; B5(3) = 2,2-bis(4-pentenyl)glycine (stitching residue), C=CCCCC(CCCC=C)(N[*:1])C(=O)[*:2]; ProSAm3 = (allylsulfonyl)-D-proline, C=CCS(=O)(=O)N1CCC[C@@H]1C(=O)*; Phe(3-COOH) = N[C@@H](Cc1cccc(C(=O)O)c1)C(=O)O; Phe(4-COOH) = N[C@@H](Cc1ccc(C(=O)O)cc1)C(=O)O; Phe(2-CF3) = N[C@@H](Cc1ccccc1C(F)(F)F)C(=O)O; Abu(4,4,4-F3) = N[C@@H](CC(F)(F)F)C(=O)O; Ala(2-furyl) = N[C@@H](Cc1ccco1)C(=O)O; Bta = N[C@@H](Cc1csc2ccccc12)C(=O)O; αAllylPro = C=CC[C@@]1(C(=O)O)CCCN1; tBuAla = CC(C)(C)C[C@H](N)C(=O)O; 2Thi = N[C@@H](Cc1cccs1)C(=O)O; 3Thi = N[C@@H](Cc1ccsc1)C(=O)O; S8 = C=CCCCCCC[C@](C)(N)C(=O)O; R5 = C=CCCC[C@@](C)(N)C(=O)O; Dab = NCC[C@H](N)C(=O)O; Abu = CC[C@H](N)C(=O)O; Dap = NC[C@H](N)C(=O)O; Acryloyl = C=CC(=O)*

First the molecules themselves.
B1: I-1567 (peptide)
peptide: Ac-[αAllylPro]D[tBuAla][B5(23)]NQAAFN[PyrS2][3Thi][Bta]Q-NH2
modifications: staple 1-4, 4-11; not fully specified; printed as Ac-PL3-Asp-Npg-B5-Asn-Gln-Ala-Ala-Phe-Asn-PyrS2-3Thi-BztA-Gln-NH2
B2: Ac-PL3-Asp-Npg-B5-Asp-3COOHF-Gln-Ala-Phe-Leu-PyrS2-2F3MeF-RbMe2NapA-Ala-NH2 (peptide)
peptide: Ac-[αAllylPro]D[tBuAla][B5(3)]D[Phe(3-COOH)]QAFL[PyrS2″][Phe(2-CF3)][RbMe2NapA]A-NH2
modifications: staple 1-4, 4-11
B3: I-1562 (peptide)
peptide: Ac-[αAllylPro]D[tBuAla][B5(4)]LNAAFN[PyrS2][3Thi][Bta]Q-NH2
modifications: staple 1-4, 4-11; also: staple isomer of earlier-eluting HPLC peak
B4: I-1576 (peptide)
peptide: [ProSAm3]D[tBuAla][B5(4)]DDAAFN[PyrS2″][3Thi][Bta]Q-NH2
modifications: staple (positions not given here); staple 4-11; not fully specified (bridges); printed as ProSAm3-Asp-Npg-B5-Asp-Asp-Ala-Ala-Phe-Asn-PyrS2-3Thi-BztA-Gln-NH2; also: staple isomer of earlier-eluting HPLC peak
B5: I-1557 (peptide)
peptide: Ac-[αAllylPro]D[tBuAla][B5(23)]NNAAFL[PyrS2][3Thi][Bta]Q-NH2
modifications: staple 1-4, 4-11
B6: I-1559 (peptide)
peptide: Ac-[αAllylPro]D[tBuAla][B5(4)]TNAAFN[PyrS2][3Thi][Bta]Q-NH2
modifications: staple 1-4, 4-11
B7: I-1569 (peptide)
peptide: Ac-[αAllylPro]D[tBuAla][B5(4)]NYAAFN[PyrS2][3Thi][Bta]Q-NH2
modifications: staple 1-4, 4-11; also: staple isomer of later-eluting HPLC peak
B8: I-1563 (peptide)
peptide: Ac-[αAllylPro]D[tBuAla][B5(4)]LNAAFN[PyrS2][3Thi][Bta]Q-NH2
modifications: staple 1-4, 4-11; also: staple isomer of later-eluting HPLC peak
B9: I-1560 (peptide)
peptide: Ac-[αAllylPro]D[tBuAla][B5(4)]QNAAFN[PyrS2][3Thi][Bta]Q-NH2
modifications: staple 1-4, 4-11
B10: I-1577 (peptide)
peptide: [ProSAm3]D[tBuAla][B5(4)]DDAAFN[PyrS2″][3Thi][Bta]Q-NH2
modifications: staple (positions not given here); staple 4-11; not fully specified (bridges); printed as ProSAm3-Asp-Npg-B5-Asp-Asp-Ala-Ala-Phe-Asn-PyrS2-3Thi-BztA-Gln-NH2; also: staple isomer of later-eluting HPLC peak
B11: I-1810 (peptide)
peptide: Ac-PD[tBuAla][R5]DDAAFL[PyrS2][3Thi][Bta]Q-NH2
modifications: staple 4-11; also: staple -CH=CH- reduced to -CH2-CH2-
B12: I-1570 (peptide)
peptide: Ac-[αAllylPro]D[tBuAla][B5(4)]NLAAFN[PyrS2][3Thi][Bta]Q-NH2
modifications: staple 1-4, 4-11
B13: I-1558 (peptide)
peptide: Ac-[αAllylPro]D[tBuAla][B5(4)]QQAAFN[PyrS2][3Thi][Bta]Q-NH2
modifications: staple 1-4, 4-11
B14: I-1568 (peptide)
peptide: Ac-[αAllylPro]D[tBuAla][B5(4)]NYAAFN[PyrS2][3Thi][Bta]Q-NH2
modifications: staple 1-4, 4-11; also: staple isomer of earlier-eluting HPLC peak
B15: I-1561 (peptide)
peptide: Ac-[αAllylPro]D[tBuAla][B5(4)]SNAAFN[PyrS2][3Thi][Bta]Q-NH2
modifications: staple 1-4, 4-11
B16: I-1556 (peptide)
peptide: Ac-[αAllylPro]DA[B5(23)]NNAAFN[PyrS2][3Thi][Bta]Q-NH2
modifications: staple 1-4, 4-11
B17: I-1566 (peptide)
peptide: Ac-[αAllylPro]D[tBuAla][B5(23)]NQAAFN[PyrS2][3Thi][Bta]Q-NH2
modifications: staple 1-4, 4-11; also: earlier-eluting HPLC staple isomer
B18: I-607 (peptide)
peptide: Ac-[αAllylPro]DI[B5(5)]D[Phe(4-COOH)]AAFQ[S8]F[Bta]Q-NH2
modifications: staple 1-4, 4-11
B19: I-606 (peptide)
peptide: Ac-[αAllylPro]DI[B5(5)]D[Phe(4-COOH)]AAFQ[S8]F[Bta]Q-NH2
modifications: staple 1-4, 4-11; also: staple isomer, earlier eluting HPLC peak
B20: I-474 (peptide)
peptide: Ac-[αAllylPro]D[Abu][B5(4)]DEAAFN[S8]F[Bta]Q-NH2
modifications: staple 1-4, 4-11
B21: I-483 (peptide)
peptide: Ac-[αAllylPro]DI[B5(4)]DDAAFQ[S8][Dap](Acryloyl)[Bta]Q-NH2
modifications: staple 1-4, 4-11; also: earlier eluting isomer
B22: I-501 (peptide)
peptide: Ac-[αAllylPro]D[Abu(4,4,4-F3)][B5(4)]DEAAFQ[S8]F[Bta]Q-NH2
modifications: staple 1-4, 4-11; also: earlier eluting isomer
B23: I-500 (peptide)
peptide: Ac-[αAllylPro]DI[B5(4)]D[TfeGA(3)]AAFQ[S8]F[Bta]H-NH2
modifications: staple 1-4, 4-11
B24: I-489 (peptide)
peptide: Ac-[αAllylPro]DI[B5(4)]DDAA[2Thi]Q[S8]F[Bta]H-NH2
modifications: staple 1-4, 4-11
B25: I-499 (peptide)
peptide: Ac-[αAllylPro]DA[B5(4)]D[TfeGA(3)]AAFQ[S8]F[Bta]H-NH2
modifications: staple 1-4, 4-11
B26: I-486 (peptide)
peptide: Ac-[αAllylPro]DA[B5(4)]DEAA[2Thi]Q[S8]F[Bta]Q-NH2
modifications: staple 1-4, 4-11; also: earlier eluting isomer
B27: I-488 (peptide)
peptide: Ac-[αAllylPro]DI[B5(4)]DEAA[2Thi]Q[S8]F[Bta]H-NH2
modifications: staple 1-4, 4-11
B28: I-490 (peptide)
peptide: Ac-[αAllylPro]DA[B5(4)]DEAAFQ[S8]F[Bta][Ala(2-furyl)]-NH2
modifications: staple 1-4, 4-11
B29: I-482 (peptide)
peptide: Ac-[αAllylPro]DI[B5(4)]DDAAFQ[S8]F[Bta][Dab]-NH2
modifications: staple 1-4, 4-11
B30: I-484 (peptide)
peptide: Ac-[αAllylPro]DI[B5(4)]DDAAFQ[S8][Dap](Acryloyl)[Bta]Q-NH2
modifications: staple 1-4, 4-11; also: later eluting isomer
B31: I-473 (peptide)
peptide: Ac-[αAllylPro]D[Abu][B5(4)]DEAAFN[S8]F[Bta]Q-NH2
modifications: staple 1-4, 4-11
B32: I-487 (peptide)
peptide: Ac-[αAllylPro]DA[B5(4)]DEAA[2Thi]Q[S8]F[Bta]Q-NH2
modifications: staple 1-4, 4-11; also: later eluting isomer

One test addresses full-length beta-Catenin (Uniprot ID P35222) (Homo sapiens (Human)) (UniProt P35222). As to the kind of experiment: fluorescence polarization competition; full-length beta-catenin, 5FAM-TCF4(10-53) probe as competitor. Background: Fluorescence polarisation rises when a labelled molecule tumbles more slowly, as on binding a larger partner.
Target sequence in this assay (P35222 2-781 limits assumed): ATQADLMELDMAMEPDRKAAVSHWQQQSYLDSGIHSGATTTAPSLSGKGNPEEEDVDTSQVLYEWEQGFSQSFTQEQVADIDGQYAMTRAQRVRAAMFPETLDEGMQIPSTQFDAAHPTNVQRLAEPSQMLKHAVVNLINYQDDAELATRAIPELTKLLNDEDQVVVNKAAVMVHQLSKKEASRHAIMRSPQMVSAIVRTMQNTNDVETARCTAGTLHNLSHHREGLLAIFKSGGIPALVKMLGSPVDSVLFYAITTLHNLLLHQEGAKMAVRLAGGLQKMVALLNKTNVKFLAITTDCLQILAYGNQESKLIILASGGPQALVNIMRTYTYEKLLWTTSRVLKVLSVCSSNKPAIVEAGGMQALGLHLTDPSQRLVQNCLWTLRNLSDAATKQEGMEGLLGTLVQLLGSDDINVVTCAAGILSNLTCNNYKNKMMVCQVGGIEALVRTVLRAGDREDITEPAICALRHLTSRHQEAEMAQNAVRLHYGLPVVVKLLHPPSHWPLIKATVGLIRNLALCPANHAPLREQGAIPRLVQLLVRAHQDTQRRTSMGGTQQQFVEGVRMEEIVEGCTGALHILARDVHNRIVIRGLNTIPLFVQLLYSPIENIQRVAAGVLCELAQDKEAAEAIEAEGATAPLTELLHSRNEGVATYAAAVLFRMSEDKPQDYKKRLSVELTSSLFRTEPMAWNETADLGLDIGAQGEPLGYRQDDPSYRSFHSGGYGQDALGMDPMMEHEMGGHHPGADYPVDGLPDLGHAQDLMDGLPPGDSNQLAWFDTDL
Regarding B1, the IC50 (usually the concentration that gives 50% inhibition) stood at 182 nM. On to B2, for which the IC50 amounted to 47 nM. For the molecule B3, the half-inhibitory concentration (IC50) was determined as 5020 nM. The molecule B4 came in with an IC50 of 224 nM. For the molecule B5, the IC50 turned out to be 342 nM. In turn, B6 showed an IC50 of 9680 nM. As to B7, the IC50 was 2660 nM. The molecule B8 displayed an IC50 of 2850 nM.

In the case of B9, the concentration for half-maximal inhibition (IC50) was 368 nM. Take B10: the IC50 was found to be 45 nM. This IC50 lies about 8.2-fold lower than the previous one. The molecule B11 gave an IC50 of 416 nM. For B12, the IC50 worked out at 1340 nM. The same measure, in the same setting: with B13 the figure was 678 nM; with B14, 7180 nM. With B15, the IC50 stood at 2600 nM. For the molecule B16, the IC50 is 385 nM. Consider B17, for which the IC50 was found to be 231 nM. This IC50 lies about 1.7-fold lower than the previous one.

Another test shares this target. As to the kind of experiment: fluorescence polarization competition; full-length beta-catenin, competitor 5FAM-TCF4(10-53) probe.
Target sequence in this assay (P35222 whole entry): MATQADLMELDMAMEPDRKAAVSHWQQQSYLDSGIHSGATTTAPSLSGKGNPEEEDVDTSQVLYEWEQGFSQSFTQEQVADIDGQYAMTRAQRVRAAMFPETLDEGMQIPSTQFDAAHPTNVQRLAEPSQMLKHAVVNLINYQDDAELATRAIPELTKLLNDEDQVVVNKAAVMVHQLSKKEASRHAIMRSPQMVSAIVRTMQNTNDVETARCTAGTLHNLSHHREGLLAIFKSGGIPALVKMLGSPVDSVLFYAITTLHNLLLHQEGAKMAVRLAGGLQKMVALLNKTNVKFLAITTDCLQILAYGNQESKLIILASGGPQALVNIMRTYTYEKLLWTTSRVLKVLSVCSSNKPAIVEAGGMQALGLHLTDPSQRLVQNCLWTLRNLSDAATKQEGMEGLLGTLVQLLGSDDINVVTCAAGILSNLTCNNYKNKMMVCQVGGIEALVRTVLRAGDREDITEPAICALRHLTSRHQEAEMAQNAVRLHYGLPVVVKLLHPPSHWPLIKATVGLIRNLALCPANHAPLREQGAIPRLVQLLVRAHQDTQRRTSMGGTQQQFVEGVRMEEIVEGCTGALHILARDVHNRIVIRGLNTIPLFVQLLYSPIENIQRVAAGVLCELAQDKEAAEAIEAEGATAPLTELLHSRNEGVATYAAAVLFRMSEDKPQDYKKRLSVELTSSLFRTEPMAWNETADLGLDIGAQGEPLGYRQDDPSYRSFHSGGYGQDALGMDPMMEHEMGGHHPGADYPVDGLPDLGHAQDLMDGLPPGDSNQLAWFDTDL
As for B18, the EC50 (in general, the concentration giving half of the maximal effect) worked out at 253 nM. Molecule B19 registered an EC50 of 289 nM. The EC50 values of the last two molecules are within 1.5-fold of each other.

Another test has the same target. As to the kind of experiment: fluorescence polarization competition; displacement of 5FAM-TCF4(10-53) from full-length beta-catenin.
Target sequence in this assay (P35222 whole entry): as above
B20: the EC50 was found to be 43 nM. B21 gave a 50% effective concentration (EC50) of 5000 nM. For B22, the EC50 came out at 94 nM. As to B23, the EC50 stood at 176 nM. B24 returned an EC50 of 57 nM. This EC50 is about 3.1-fold lower than that of the molecule before. In turn, B25 came in with an EC50 of 123 nM. B26 yielded an EC50 of 147 nM. B27 displayed an EC50 of 43 nM. Regarding B28, the EC50 was determined as 88 nM. This EC50 is about 2-fold higher than that of the molecule before. Same read-out and setting: with B29 the figure was 118 nM; with B30, 5000 nM; with B31, 121 nM. The molecule B32 registered a 50% effective concentration (EC50) of 45 nM. This EC50 is about 2.7-fold lower than that of the molecule before.

The next test has the same target. As to the kind of experiment: fluorescence polarization competition; full-length beta-catenin with 5FAM-TCF4(10-53) probe as competitor.
Regarding B20, the IC50 turned out to be 43 nM.

B21: the IC50 stood at 5000 nM. The molecule B22 gave an IC50 of 94 nM.

As to B18, the IC50 is 253 nM. Molecule B23 showed an IC50 of 176 nM. This IC50 and that of the molecule before are within 1.5-fold of each other. With B24, the IC50 was determined as 57 nM. Still for that read-out and setting: with B25 the figure was 123 nM; with B26, 147 nM; with B27, 43 nM. In turn, B28 came in with an IC50 of 88 nM.

B29 yielded an IC50 of 118 nM.

In turn, B30 displayed an IC50 of 5000 nM. This IC50 is about 42-fold higher than that of the molecule before.

B31 showed an IC50 of 121 nM.

In turn, B32 returned an IC50 of 45 nM. For the molecule B19, the IC50 came to 289 nM.
